Source: article PMC4899871, “The T300A Crohn's disease risk polymorphism impairs function of the WD40 domain of ATG16L1” (Nature Communications, 2016)
Ends that are not written are not given here. Tds = not defined here

B1: TMEM59 263–281 peptide E272A (peptide, UniProt Q9BXS4 263-281, looked up)
peptide: Tds-TAVEQYVPSAKLSIYGDLE
modifications: reading uncertain
notes: TMEM59 residues 263-281 with E272A; source: synthetic peptide on microarray, bought: JPT (Germany)
B2: TMEM59 263–281 peptide, wild type (19-amino acid peptide that includes the ATG16L1-binding motif) (peptide, UniProt Q9BXS4 263-281, looked up)
peptide: Tds-TAVEQYVPSEKLSIYGDLE
modifications: not fully specified; reading uncertain
notes: TMEM59 residues 263-281 of the intracellular domain; also called WT peptide; native peptide; source: synthetic peptide on microarray, bought: JPT (Germany)

What was measured:
Assay in all cases: peptide or protein array; Peptides immobilised through the N-terminus (Tds spacer) on glass slides (JPT), nine spots per peptide; recombinant ligand 400 nM to 1 uM in PBS/0.05% Tween-20 with 5% BSA, 2 h at room temperature then overnight at 4 °C; detected with anti-HA plus anti-GST and Cy5-labelled secondary antibodies; background of a FLAG peptide subtracted
Conditions in all cases: both partners purified
[1] = target: T1, GST-HA-ATG16L1-231–607 T300, purified from human cells (human, UniProt Q676U5 231-607)
T1 construct: source: HEK-293T, retrovirally transduced, purified (GSH-agarose)
T1 sequence (Q676U5 231-607): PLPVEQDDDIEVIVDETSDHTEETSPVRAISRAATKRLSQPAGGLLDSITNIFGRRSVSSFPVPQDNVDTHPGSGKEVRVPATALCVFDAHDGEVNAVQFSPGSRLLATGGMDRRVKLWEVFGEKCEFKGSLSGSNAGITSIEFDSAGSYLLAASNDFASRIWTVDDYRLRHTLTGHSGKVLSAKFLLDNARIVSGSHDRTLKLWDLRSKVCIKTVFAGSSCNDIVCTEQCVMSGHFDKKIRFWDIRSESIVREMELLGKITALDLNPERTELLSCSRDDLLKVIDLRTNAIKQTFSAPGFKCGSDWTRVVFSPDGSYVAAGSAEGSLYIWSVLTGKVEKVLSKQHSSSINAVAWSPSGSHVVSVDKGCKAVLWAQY

[2] = target: T2, GST-HA-ATG16L1-320–607 (recombinant WD40 domain fused to GST and the HA tag) (human, UniProt Q676U5 320-607)
T2 construct: source: E. coli BL21 (pGEX), purified (GSH-agarose, eluted with reduced GSH)
T2 sequence (Q676U5 320-607): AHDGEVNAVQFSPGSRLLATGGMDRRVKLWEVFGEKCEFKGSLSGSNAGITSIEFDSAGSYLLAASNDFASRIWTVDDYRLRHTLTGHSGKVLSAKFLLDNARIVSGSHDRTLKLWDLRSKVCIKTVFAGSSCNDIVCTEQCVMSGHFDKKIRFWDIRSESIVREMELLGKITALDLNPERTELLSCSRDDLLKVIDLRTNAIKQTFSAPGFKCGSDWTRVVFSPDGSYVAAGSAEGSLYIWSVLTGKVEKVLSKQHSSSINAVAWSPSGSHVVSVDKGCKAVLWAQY

[3] = target: T3, GST-HA-ATG16L1-231–607 A300, purified from human cells (human, UniProt Q676U5 231-607, T300A)
T3 construct: source: HEK-293T, retrovirally transduced, purified (GSH-agarose)
T3 sequence (Q676U5 231-607 T300A): as the sequence (Q676U5 231-607) above, with T70A counted along it

Row | Binder | binding result [1] | binding result [2] | binding result [3]
1 | B1 | binds |  | 
2 | B2 | binds | binds | binds
